The results in this text go back to patent US11733246B2, “Compositions, imaging, and therapeutic methods targeting folate receptor 1 (FOLR1)” (Indi Molecular, Inc., priority 2020, dated 2023).

Like-named read-outs stand apart in the source and are kept apart here. Numbered stars: 1 amine (or outer) side, 2 acyl side, 3 side chain; on linkers, the order of the positions; unused ones are H or OH. Bridge positions count the residues as written; N and C are the ends. Square brackets hold non-standard residues; d marks the D form. Triazole bridges read from a SMILES are 1,4-linked. Side chains are listed from the residue outwards. Peptide text beside a SMILES is read from it. * marks the point of attachment. DOTA = O=C(O)CN1CCN(CC(=O)O)CCN(CC(=O)*)CCN(CC(=O)O)CC1; Pteroyl = Nc1nc2ncc(CNc3ccc(C(=O)*)cc3)nc2c(=O)[nH]1; Biotin = O=C1N[C@H]2[C@H](CS[C@H]2CCCCC(=O)*)N1; Butanoyl(4-(4-I-phenyl)) = O=C(CCCc1ccc(I)cc1)*; PEG10 = NCCOCCOCCOCCOCCOCCOCCOCCOCCOCCOCCC(=O)O; Butanoyl(4-(4-MePh)) = Cc1ccc(CCCC(=O)*)cc1; Lys(N3) = [N-]=[N+]=NCCCC[C@H](N)C(=O)O; γGlu = O=C(O)[C@H](CCC(=O)[*:2])N[*:1]; AEEEA = NCCOCCOCCOCC(=O)O; Pra = C#CC[C@H](N)C(=O)O

One data set concerns the target T1, FOLR1 (Homo sapiens, UniProt P15328).
T1 construct: His; purchased SinoBiological 11241-H08H
The data set is described as follows: ELISA assay of FOLR1 binding. The text has this: FIG. 5 is a diagram of ELISA assay of FOLR1 binding of heterobiligands.
Nonclinical studies were first conducted with Folate-hshta-PEG10-PEG10-K(Biotin), where Folate-hshta is the targeting heterobiligand, PEG10 is a deca(ethylene glycol) linker, and K(Biotin) is the detection label.

A short description of data set [1]: Plasma protein binding (equilibrium dialysis), human. The class given is in vitro ADME. The method, then:
(§1) HTD 96 a/b regenerated cellulose membrane strips with mass cutoff of 12-14 kDa were soaked in ultra-pure water at room temperature for 1 hour. Each swelled membrane was then soaked in 20:80 ethanol:water for 20 minutes.
(§2) Just prior to the experiment, the membranes were re-soaked in ultra-pure water. Plasma was prepared by thawing under cold water. The plasma was centrifuged to remove any clots and pH was adjusted to 7.0-8.0. Test articles and control compounds were diluted to 2 μM. The dialysis device was loaded by transferring 150 μL of the test article (in triplicate) to the donor side. The dialysis device was placed in a humidified incubator at 37° C. with 5% CO2 in a shaking platform that rotated slowly for 4 hours. After incubation, 50 μL of the supernatant was taken from both sides and analyzed by LC-MS/MS.
(§3) To optimize the albumin binding potential of the heterobiligand, a plasma protein binding (PPB) experiment was performed. This experiment measured the amount of test article bound and free after equilibrating with plasma. Compound #6305 (folate-hshta-Lys(MPBA)-Gly-Phe-Lys(DOTA) (SEQ ID NO:6)), which contains the MPBA albumin binder, was 96.26% bound to mouse plasma and 98.34% bound to human plasma. […] In mouse and human plasmas 99.6% and 99.5% was bound, respectively.
A general note: Equilibrium dialysis compares concentrations on both sides of a semipermeable membrane.

Data set [2] can be described thus: Plasma protein binding (equilibrium dialysis), mouse. Format: in vitro ADME, CD-1 mouse. The method, then:
as §1, §2, §3

A further data set concerns the target human recombinant NEP (Homo sapiens, UniProt P08473). Format: biochemical. The method, then: In order to test the susceptibility of GFK and MVK linkers to NEP-mediated cleavage, the peptide (Folate-hshta-Lys(MPBA)-Gly-Phe-Lys(DOTA) (SEQ ID NO:6)) was incubated with human recombinant NEP and analyzed the solution for the presence of cleaved adducts. MALDI was utilized to monitor the cleavage of a PCC heterobiligand that contains a NEP protease recognizable sequence (G-F-K). The PCC concentration was constant and the NEP concentration was titrated down from 10 nM to 1 nM, 0.1 nM, 0.01 nM, and no NEP. The NEP-mediated cleaved adduct was identified by mass. 10 μM PCC containing the GFK linker was combined with varying amounts of NEP. […] Below 0.1 nM no cleavage was observed. • Folate-hshta-Lys(MPBA)-Gly-Phe-Lys(DOTA) (SEQ ID NO:6) • Molecular weight 2231.42
The NEP-mediated cleavage was also monitored by HPLC. In agreement with the MALDI spectra, the HPLC chromatograms show depletion of the parent brush-border heterobiligand (retention time 17.1 minutes), dose-dependent on the amount of NEP spiked into the sample (10 nM, 1 nM, 0.1 nM, 0.01 nM, and no NEP). An appearance of a new peak (retention time 16.5 minutes) in concert with the depletion of the starting material is presumed to be the cleaved folate-containing peptide.
In order to test the specificity of NEP, a non-cleavable linker (PEG3) was also assayed.
To reduce the radioactive dose to the kidney, Indi ^177Lu-7327 was constructed to incorporate a GFK linker that is susceptible to cleavage by enzymes found predominately in the kidney's brush border. These enzymes cleave off the radionuclide-chelator complex, which is quickly eliminated by the kidney for excretion in the urine. The zinc metalloprotease neprilysin (NEP) is expressed with high abundance in the kidney. […] To confirm NEP-mediated cleavage of the GFK linker in Indi 7327, the peptide was incubated with recombinant human NEP at 37° C. for 1 h and analyzed by matrix-assisted laser desorption/ionization mass spectrometry (MALDI-MS) for the evolution of cleaved adducts (FIG. 42). […] The expected cleaved adduct (mass: 1283.16 m/z) appears in the samples containing 10, 1.0, and 0.1 nM NEP. […] Below 0.1 nM NEP, no cleavage was observed. In addition to confirming the selectivity of NEP for the GFK linker, it is also important to note that the remaining portions of the Indi 7327 were impervious to the enzyme.

The next data set concerns OVCAR3 xenografts. Briefly: 177Lu FOLR1 radioligand therapy in OVCAR3 xenograft model. The class given is in vivo, mouse. On the procedure: Water and food were provided ad libitum. […] Tumor growth was monitored by caliper measurements.
OVCAR3 tumor bearing mice were used to study FOLR1-directed radioligand therapy (RLT) for treatment of ovarian cancer. Animals were administered a single dose of heterobiligand (vehicle control) or 111, 37, 18.5, 9.25, or 3.7 MBq [^177Lu]DOTA-labeled heterobiligand. Mice received the dose intravenously (i.v.) via the tail vein. To monitor the effect of the RLT, tumor size measurements were taken twice weekly and body weights were measured.
The engraftment was allowed to expand until palpable tumor sizes ranging in size from 218-384 mm^3 were detected. […] These observed effects were consistant with radiation overdosing. […] The best response was observed using 9.25 MBq Lu-177 Heterobiligand (compound #2809).
Single dose treatments at 18.5 MBq/nmol specific activity. OVCAR3 mouse model was used. 10^7 cell tumors were implanted in the mice one month before administration of ^177Lu-#6305. Five mice each were administered Cold #6305, 9.25 MBq Lu177-#6305, and 14.8 MBq Lu177-#6305, and two mice were administered 29.6 MBq Lu177-#6305. Tumor growth and body weight were then monitored.
Female NSG mice were implanted subcutaneously with OVCAR3 cells. Once tumors reached volumes of 200 mm^3, the animals were treated with 177-Lu 7327. Three treatment arms of 9.25 MBq, 14.8 MBq, and 29.6 MBq were studied.
Female NSG mice were implanted subcutaneously with human OVCAR3 (FOLR+) ovarian cancer cells. Once tumors reached volumes of 200 mm^3, the animals were treated with Indi ^177Lu-7327. One treatment arm of 74 MBq and a control group of 0 MBq were studied (FIGS. 41 and 38A). […] The second dose was administered 21 days following the first dose. Statistically significant differential between treated and control was reached 24 days post-injection (three days following the second dose) for the 74 MBq arm. P values (* for p≤0.05, ** for p≤0.01) were determined by ordinary one-way ANOVA with Tukey's multiple comparisons test.

The nature of data set [3]: Maximum tolerated dose / tolerability study. The conditions noted are these: healthy, non-tumor bearing female NSG mice.
Procedure: Animals were monitored for signs of toxicity and weighed twice weekly. […] The second and third doses were administered 21 days following the previous dose.
Two separate MTD experiments were undertaken. […] A second experiment interrogated lower doses.
Mouse body weight and behavior were monitored. […] The second and third doses were administered 21 days following the previous dose.
The mark [4] stands for this setting: albumin binder / DOTA tagged biotin-labeled heterobiligands, read-out: EC50.

T1 sequence (P15328 25-234): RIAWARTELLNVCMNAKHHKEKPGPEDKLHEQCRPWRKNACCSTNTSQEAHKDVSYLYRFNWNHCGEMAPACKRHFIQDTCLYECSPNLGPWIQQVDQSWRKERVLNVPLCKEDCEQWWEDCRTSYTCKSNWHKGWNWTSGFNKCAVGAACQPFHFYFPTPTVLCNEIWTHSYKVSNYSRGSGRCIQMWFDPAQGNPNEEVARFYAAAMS
Chain of human recombinant NEP (P08473 whole entry): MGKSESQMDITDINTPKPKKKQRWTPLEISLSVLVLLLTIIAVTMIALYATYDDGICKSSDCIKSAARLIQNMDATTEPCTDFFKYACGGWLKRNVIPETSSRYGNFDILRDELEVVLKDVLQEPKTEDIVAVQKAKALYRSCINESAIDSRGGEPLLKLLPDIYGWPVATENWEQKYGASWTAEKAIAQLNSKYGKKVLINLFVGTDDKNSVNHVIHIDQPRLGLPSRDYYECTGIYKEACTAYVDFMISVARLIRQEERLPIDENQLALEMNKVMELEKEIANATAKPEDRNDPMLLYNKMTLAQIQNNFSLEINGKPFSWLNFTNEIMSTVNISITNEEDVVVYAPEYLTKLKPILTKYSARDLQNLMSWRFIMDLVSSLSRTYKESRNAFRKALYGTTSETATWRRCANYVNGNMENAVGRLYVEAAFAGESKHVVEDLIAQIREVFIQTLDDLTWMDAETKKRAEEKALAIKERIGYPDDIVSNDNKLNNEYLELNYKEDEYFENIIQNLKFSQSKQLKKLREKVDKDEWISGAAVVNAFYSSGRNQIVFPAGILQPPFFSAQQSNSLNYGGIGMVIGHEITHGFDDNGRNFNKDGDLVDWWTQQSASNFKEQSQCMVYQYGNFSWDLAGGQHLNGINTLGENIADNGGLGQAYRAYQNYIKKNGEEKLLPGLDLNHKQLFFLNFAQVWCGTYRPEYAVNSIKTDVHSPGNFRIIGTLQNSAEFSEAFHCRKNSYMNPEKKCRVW

Broadly, the EC50 is the concentration giving half of the maximal effect. In the case of `C[C@H](O)[C@H]1NC(=O)[C@@H](Cc2c[nH]cn2)NC(=O)[C@@H](CO)NC(=O)[C@@H](Cc2c[nH]cn2)NC(=O)[C@@H](NC(=O)CC[C@H](NC(=O)c2ccc(NCc3cnc4nc(N)[nH]c(=O)c4n3)cc2)C(=O)O)Cc2cn(nn2)CCCC[C@@H](C(=O)NCCOCCOCCOCC(=O)N[C@@H](CCCCNC(=O)CN2CCN(CC(=O)O)CCN(CC(=O)O)CCN(CC(=O)O)CC2)C(=O)NCCOCCOCCOCCOCCOCCOCCOCCOCCOCCOCCC(=O)NCCOCCOCCOCCOCCOCCOCCOCCOCCOCCOCCC(=O)N[C@@H](CCCCNC(=O)CCCC[C@@H]2SC[C@@H]3NC(=O)N[C@@H]32)C(N)=O)NC(=O)[C@@H](C)NC1=O` [Folate-hshta-DOTA] ({Pteroyl-γGlu}-[Pra][dH][dS][dH][dT][dA][Lys(N3)][AEEEA]K(DOTA)[PEG10][PEG10]K(Biotin)-NH2; triazole 1-7), the EC50 at FOLR1 (setting [4]) is 98 pM.

In the case of `Cc1ccc(CCCC(=O)NCCCC[C@H](NC(=O)COCCOCCOCCNC(=O)[C@@H]2CCCCn3cc(nn3)C[C@H](NC(=O)CC[C@H](NC(=O)c3ccc(NCc4cnc5nc(N)[nH]c(=O)c5n4)cc3)C(=O)O)C(=O)N[C@H](Cc3c[nH]cn3)C(=O)N[C@H](CO)C(=O)N[C@H](Cc3c[nH]cn3)C(=O)N[C@H]([C@H](C)O)C(=O)N[C@H](C)C(=O)N2)C(=O)NCCOCCOCCOCCOCCOCCOCCOCCOCCOCCOCCC(=O)NCCOCCOCCOCCOCCOCCOCCOCCOCCOCCOCCC(=O)N[C@@H](CCCCNC(=O)CCCC[C@@H]2SC[C@@H]3NC(=O)N[C@@H]32)C(N)=O)cc1` [Folate-hshta-MPBA] ({Pteroyl-γGlu}-[Pra][dH][dS][dH][dT][dA][Lys(N3)][AEEEA]K(Butanoyl(4-(4-MePh)))[PEG10][PEG10]K(Biotin)-NH2; triazole 1-7), on FOLR1 (setting [4]), the EC50 turned out to be 110 pM.

Take `CSCC[C@H](NC(=O)[C@H](CCCCNC(=O)CCCc1ccc(I)cc1)NC(=O)[C@@H]1CCCCn2cc(nn2)C[C@H](NC(=O)CC[C@H](NC(=O)c2ccc(NCc3cnc4nc(N)[nH]c(=O)c4n3)cc2)C(=O)O)C(=O)N[C@H](Cc2c[nH]cn2)C(=O)N[C@H](CO)C(=O)N[C@H](Cc2c[nH]cn2)C(=O)N[C@H]([C@H](C)O)C(=O)N[C@H](C)C(=O)N1)C(=O)N[C@H](C(=O)N[C@@H](CCCCNC(=O)CN1CCN(CC(=O)O)CCN(CC(=O)O)CCN(CC(=O)O)CC1)C(=O)O)C(C)C` [compound #1306, Fol-hshta-Lys(4-IPBA)-Met-Val-Lys(DOTA)] ({Pteroyl-γGlu}-[Pra][dH][dS][dH][dT][dA][Lys(N3)]K(Butanoyl(4-(4-I-phenyl)))MVK(DOTA)-OH; triazole 1-7): the values for the recovery in data set [1] and in data set [2] were 84.8% and 82.7%, respectively. In addition, the “in vitro Assay Data (NEP assay)” value with human recombinant NEP was “Cleavage of -M-V-K-”.

As to `C[C@H](O)[C@H]1NC(=O)[C@@H](Cc2cnc[nH]2)NC(=O)[C@@H](CO)NC(=O)[C@@H](Cc2cnc[nH]2)NC(=O)[C@@H](NC(=O)CC[C@H](NC(=O)c2ccc(NCc3cnc4nc(N)[nH]c(=O)c4n3)cc2)C(=O)O)Cc2cn(nn2)CCCC[C@@H](C(=O)NCC(=O)N[C@@H](Cc2ccccc2)C(=O)N[C@@H](CCCCNC(=O)CN2CCN(CC(=O)O)CCN(CC(=O)O)CCN(CC(=O)O)CC2)C(=O)O)NC(=O)[C@@H](C)NC1=O` [Indi ^177Lu-7327, Folate-hshta-G-F-K(^177Lu-DOTA)-OH, metal not drawn] ({Pteroyl-γGlu}-[Pra][dH][dS][dH][dT][dA][Lys(N3)]GFK(DOTA)-OH; triazole 1-7), in the data set with OVCAR3 xenografts (29.6 MBq, after second dose), the “loss of body weight” value is 5-10%. Also, the body weight result with OVCAR3 xenografts (highest dose (29.6 MBq), after second dose) is “modest loss of body weight”. In the data set on OVCAR3 xenografts (mouse, in vivo), the “body weights of treated mice” value is reported as “normal body weights (+/−10%)” and the “tolerability of first dose” value was “well tolerated”. Further, the “radioactive dose tolerated, three treatments” value in data set [3] is listed as “up to 111 MBq”.

Turning to `C[C@H](O)[C@H]1NC(=O)[C@@H](Cc2ccc(O)cc2)NC(=O)[C@@H](CCCNC(=N)N)NC(=O)[C@@H](CCC(=O)O)NC(=O)[C@@H](CC(=O)O)NC(=O)[C@@H](NC(=O)[C@H](CCCCNC(=O)COCCOCCOCCNC(=O)CC[C@H](NC(=O)c2ccc(NCc3cnc4nc(N)[nH]c(=O)c4n3)cc2)C(=O)O)NC(=O)CCOCCOCCOCCOCCOCCOCCOCCOCCOCCOCCNC(=O)CCOCCOCCOCCOCCOCCOCCOCCOCCOCCOCCNC(=O)CCCC[C@@H]2SC[C@@H]3NC(=O)N[C@@H]32)Cc2cn(nn2)CCCC[C@@H](C(N)=O)NC1=O` [Lys (PEG3 -Folate)-deryt] ({Biotin-PEG10-PEG10}-K([AEEEA-γGlu-Pteroyl])[Pra][dD][dE][dR][dY][dT][Lys(N3)]-NH2; triazole 2-8), the response at FOLR1 (EC50, deryt heterobiligands, ELISA) was half-maximal at 160 pM (EC50).
